According to patent publication US20220106596A1, “A METHOD OF GENE EDITING” (University of Washington, priority 2019, published 2022):

B1: Sh41: shRNA cloned in pTRIPZ (Dharmacon), target gene Topo III alpha; SEQ ID NO: 106 (nucleic acid)
chain: GTTGACAGTGAGCGTGGACATTTACTGGCTCATGATTAGTGAAGCCACAGATGTAATCATGAGCCAGTAAATGTCCATGCCTACTGCCTC
B2: Sh42: shRNA cloned in pTRIPZ (Dharmacon), target gene 12A5, MEIS2; SEQ ID NO: 107 (nucleic acid)
chain: GTTGACAGTGAGCGCGGACTTTATCAGAAACTCAAATAGTGAAGCCACAGATGTATTTGAGTTTCTGATAAAGTCCTTGCCTACTGCCTC
B3: SH56: shRNA cloned in pTRIPZ (Dharmacon), target gene 12B12, ORC1L; SEQ ID NO: 108 (nucleic acid)
chain: GTTGACAGTGAGCGCGCCACGTTTCAACAGATATATTAGTGAAGCCACAGATGTAATATATCTGTTGAAACGTGGCTTGCCTACTGCCTC
B4: SH60: shRNA cloned in pTRIPZ (Dharmacon), target gene BLM; SEQ ID NO: 109 (nucleic acid)
chain: GTTGACAGTGAGCGCGGAGTCTGCGTGCGAGGATTATAGTGAAGCCACAGATGTATAATCCTCGCACGCAGACTCCTTGCCTACTGCCTC
B5: SH61: shRNA cloned in pTRIPZ (Dharmacon), target gene BLM; SEQ ID NO: 110 (nucleic acid)
chain: GTTGACAGTGAGCGAAACCTTCCTATGATATTGATATAGTGAAGCCACAGATGTATATCAATATCATAGGAAGGTTGTGCCTACTGCCTC
B6: SH62: shRNA cloned in pTRIPZ (Dharmacon), target gene BLM; SEQ ID NO: 111 (nucleic acid)
chain: GTTGACAGTGAGCGCGGTGTCCATTACTTCAATATTTAGTGAAGCCACAGATGTAAATATTGAAGTAATGGACACCATGCCTACTGCCTC
B7: SH63: shRNA cloned in pTRIPZ (Dharmacon), target gene BLM; SEQ ID NO: 112 (nucleic acid)
chain: GTTGACAGTGAGCGAAGGTTATCTGTGCTACAATTGTAGTGAAGCCACAGATGTACAATTGTAGCACAGATAACCTGTGCCTACTGCCTC
B8: SH79: shRNA cloned in pTRIPZ (Dharmacon), target gene POLA1; SEQ ID NO: 113 (nucleic acid)
chain: GTTGACAGTGAGCGCGCAGATCATGTGTGAGCTAAATAGTGAAGCCACAGATGTATTTAGCTCACACATGATCTGCATGCCTACTGCCTC
modifications: listed as DNA, chemistry not fully specified
B9: SH7: shRNA cloned in pTRIPZ (Dharmacon), target gene 1B3, POLE4; SEQ ID NO: 101 (nucleic acid)
chain: GTTGACAGTGAGCGCGGAGAGACTTGGATAATGCAATAGTGAAGCCACAGATGTATTGCATTATCCAAGTCTCTCCTTGCCTACTGCCTC
B10: SH9: shRNA cloned in pTRIPZ (Dharmacon), target gene 1B5, anapc5; SEQ ID NO: 102 (nucleic acid)
chain: GTTGACAGTGAGCGCGCGCATTATCTCAGCTACTTATAGTGAAGCCACAGATGTATAAGTAGCTGAGATAATGCGCTTGCCTACTGCCTC
B11: sh15: shRNA cloned in pTRIPZ (Dharmacon), target gene 2b3, pms2; SEQ ID NO: 103 (nucleic acid)
chain: GTTGACAGTGAGCGCCCGTAGTCACTGTATGGAATATAGTGAAGCCACAGATGTATATTCCATACAGTGACTACGGTTGCCTACTGCCTC
B12: Sh39: shRNA cloned in pTRIPZ (Dharmacon), target gene BLM; SEQ ID NO: 104 (nucleic acid)
chain: GTTGACAGTGAGCGTAAGCAGCGATGTGATTTGCATTAGTGAAGCCACAGATGTAATGCAAATCACATCGCTGCTTATGCCTACTGCCTC
B13: Sh40: shRNA cloned in pTRIPZ (Dharmacon), target gene RMI1/BLAP75; SEQ ID NO: 105 (nucleic acid)
chain: GTTGACAGTGAGCGTGATCTAGTTACAGCTGAAGCATAGTGAAGCCACAGATGTATGCTTCAGCTGTAACTAGATCATGCCTACTGCCTC

The molecules below were run on HT-1080/neo/HPRT editing lines (assay: neo gene editing (G418 selection) after shRNA inhibition of selected replication fork proteins). Settings: shRNA induced 24 hours with doxycycline (1 μg/ml); AAV-HSN MOI 2×10^4.
Type: cell-based, human
Procedure: (§1) To determine the effect of shRNA specific for selected replication fork proteins on gene editing, experiments were performed using the HT-1080/neo/HPRT editing lines. Each gene indicated in Table 8 below was inhibited with a shRNA (sequences provided in Table 7 below) expressed from a lentivirus vector.
(§2) HPRT and neo gene editing frequencies were measured by G418 or HAT selection and normalized to a cell that was not treated with a shRNA.
(§3) Cells were first transduced with a lentivirus expressing a shRNA specific for the targeted genes. 2×10^4 HT-1080 cells transduced with the specific shRNAs were then plated in 6-well plates on day 1, and the expression of the shRNA was induced for 24 hours with doxycycline (1 μg/ml). On day 2, cells were transduced with AAV-HSN or AAV-HPe3 at a MOI of 2×10^4. On day 4, the cells were treated with trypsin and 0.1% of the cells were replated without selection in 6-well plates to determine the number of colony forming units. The remainder of the cells were replated in 6-well plates for further analysis of gene editing frequency.
(§4) On day 5, neo gene correction experiments were performed by the addition of G418 (700 ug/ml) to the experimental plates. On day 16, plates were washed with PBS and the colonies were stained with Coomassie brilliant blue G. The percentage of neo gene correction was calculated as the number of G418-resistant CFU per total CFU for each original well. On day 6, HPRT gene correction experiments were performed by adding 1× HAT (hypoxanthine-aminopterin-thymidine medium) to the experimental plates. On day 16, plates were washed with PBS and the colonies were stained with Coomassie brilliant blue G. The percentage of HPRT gene correction was calculated as the number of HAT-resistant CFU per total CFU for each original well.

Row | Molecule | G418 (neo) gene editing frequency normalized to a cell not treated with a shRNA
1 | B1 | 1.42
2 | B2 | 1.26
3 | B3 | 2.07
4 | B4 | 2.08
5 | B5 | 2.64
6 | B6 | 2.28
7 | B7 | 1.99
8 | B8 | 1.24
9 | B9 | 1.57
10 | B10 | 2.81
11 | B11 | 3.88
12 | B12 | 1.67
13 | B13 | 1.37

The molecules below were run on HT-1080/neo/HPRT editing lines (assay: HPRT gene editing (HAT selection) after shRNA inhibition of selected replication fork proteins). Settings: shRNA induced 24 hours with doxycycline (1 μg/ml); AAV-HPe3 MOI 2×10^4.
Type: cell-based, human
Procedure: as §1, §2, §3, §4

Row | Molecule | HAT (HPRT) gene editing frequency normalized to a cell not treated with a shRNA
14 | B1 | 1.66
15 | B3 | 2.11
16 | B4 | 1.38
17 | B5 | 2.82
18 | B6 | 2.34
19 | B7 | 0.92
20 | B8 | 2.46
21 | B9 | 8.24
22 | B10 | 29.10
23 | B11 | 17.59
24 | B12 | 3.8
25 | B13 | 1.61
